Assay results: patent US20230272086A1 (CHIA TAI TIANQING PHARMACEUTICAL GROUP, published 2023)
Where a chain is given by its changes, count along the chain named.

T1: recombinant protein containing hST2 extracellular domain with mouse antibody heavy chain Fc tag (hST2-ECD-mFc) (human)
T1 construct: Used for SPR and for ELISA of chimeric and humanized antibodies; also called human ST2 antigen
T1 chain: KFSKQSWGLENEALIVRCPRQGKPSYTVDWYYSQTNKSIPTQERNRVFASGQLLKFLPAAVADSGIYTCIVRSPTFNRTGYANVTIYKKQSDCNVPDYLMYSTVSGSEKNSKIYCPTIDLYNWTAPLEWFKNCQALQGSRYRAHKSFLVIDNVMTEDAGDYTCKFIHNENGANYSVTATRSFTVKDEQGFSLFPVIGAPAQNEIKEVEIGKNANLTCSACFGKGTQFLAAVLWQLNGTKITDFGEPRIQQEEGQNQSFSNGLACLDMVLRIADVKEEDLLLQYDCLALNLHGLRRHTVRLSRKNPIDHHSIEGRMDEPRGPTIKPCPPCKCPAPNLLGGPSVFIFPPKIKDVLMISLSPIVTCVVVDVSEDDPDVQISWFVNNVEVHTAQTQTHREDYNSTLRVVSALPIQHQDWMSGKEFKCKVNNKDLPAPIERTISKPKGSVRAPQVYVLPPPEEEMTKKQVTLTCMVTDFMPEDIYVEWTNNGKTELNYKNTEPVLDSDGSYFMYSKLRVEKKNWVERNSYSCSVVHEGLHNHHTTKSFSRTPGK

B1: Chimeric 17E2 (antibody, human IgG2, kappa, V domains shown)
VH: QVQLQQSGAELVRPGASVTLSCKASGYTFTDYEMHWVKQTPVLGLEWIGAIDPETGDTAYNQKFKGKATLTADKSSSTAYMELSSLASEDSAVYYCIRVDSNYDYFDYWGQDTTLTVSS
VL: DIVLTQSPPILSASPGEKVTMTCRASSSVSYMHWYQQKPGSSPKPWIYDTSNLASGVPARFSGSGSGTSYSLTISRVEAEDAATYYCQQWSSNPLTFGAGTKLELKR
notes: also called xi17E2
B2: Chimeric 31C8 (antibody, human IgG2, kappa, V domains shown)
VH: QVQLQQSGPELVRPGASVTLSCKASGYIFIDSEMHWVKQTPVHGLEWIGAIDPETGDTVYNQKFKGKATLTADKSSSTASMELSSLTSEDSAVYYCTGSTTDYYFAYWGQGTTLTVSS
VL: DIVMTQAAFSNPVTLGTSASISCRSSKSLLHSNGIIYLYWYLQKPGQSPQLLIYQMSNLASGVPDRFSSSGSGTDFTLRISRVEAEDVGVYYCAQNLELPFTFGSGTKLEIKR
notes: also called xi31C8
B3: Chimeric 3C6 (antibody, human IgG2, kappa, V domains shown)
VH: QVQLQQSGAEVVRPGASVTLSCKASDYTITDYEMHWVKQTPVHGLEWIGAIDPETGDTAYSQNFKGKATLTADESSSTAYMELSSLTSEDSAVYYCSRSATDYYFASWGQGTTLTVSS
VL: B2 VL with F9I, I21M, I36T, Q47H, R79K
notes: also called xi3C6
B4: Chimeric 26A1 (antibody, human IgG2, kappa, V domains shown)
VH: B2 VH with P9A, G26D, I30T, M34I, P41L, V59A, S80Y, D90G, T97S, Y103C
VL: B2 VL
notes: also called xi26A1
B5: Chimeric 8F4 (antibody, human IgG2, kappa, V domains shown)
VH: B2 VH with P9A, Y27H, I30T, S32Y, H35Q, I51F, V59A, S80Y, T97S, T113S
VL: B2 VL with I2V, A7T
notes: also called xi8F4
B6: RG6149 (antibody Ab2 in CN104334582, prepared in-house) (antibody, human IgG2, kappa, V domains shown)
VH: EVQLVQSGAEVKKPGESLKISCKGSGYSFTNYWIGWVRQMPGKGLEWMGIIYPGNSDTRFSPSFQGQVTISADKSITTAYLQWSSLKASDTAMYYCARHGTSSDYYGLDVWGQGTTVTVSS
VL: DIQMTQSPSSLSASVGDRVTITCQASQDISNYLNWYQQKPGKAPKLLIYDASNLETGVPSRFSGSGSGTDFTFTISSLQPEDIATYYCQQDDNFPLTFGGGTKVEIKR
notes: Control anti-ST2 antibody
B7: Chimeric 7D1 (antibody, human IgG2, kappa, V domains shown)
VH: QVQLQQSGAELVRPGASVTLSCKASGYTFTDYEMHWVKQTPVHGLDWIGTIDPETGDTAYNQKFKGRATLTADKSSSTAYMELSSLTSEDSAVYYCTRYSYTNSPYGMDYWGQGTSVTVSS
VL: DVVMTQTPKFLLVSAGDRVTITCKASQSVSNDVAWYQQKPGQSPKLLIYYASNRYTGVPDRFTGSGYGTDFTFTINTVQAEDLAVYFCQQDYSSPYTFGGGTKLEIKR
notes: also called xi7D1

Target: recombinant protein containing hST2 extracellular domain with human antibody heavy chain Fc tag (hST2-ECD-hFc) (human)
Test: competition ELISA, coated hST2-ECD-hFc, antibody then biotin-labeled hIL33 Avitag (competitor)
Procedure: Whether the anti-ST2 antibodies were able to block the binding of hIL33 to hST2 was determined based on ELISA. A high-adsorption 96-well plate was coated with 2 µg/mL hST2-ECD-hFc at 100 µL/well and incubated overnight at 4° C. After the antigen not adsorbed was well washed off, the non-specific binding sites were blocked with a blocking buffer (PBST containing 1% bovine serum albumin). After the plate was washed three times with a washing buffer (PBST, PBS containing 0.05% (v/v) Tween 20), the anti-ST2 antibodies (serially diluted 2-fold from an initial concentration of 66.67 nM to 8 concentrations) were added at 100 µL/well, and the plate was incubated at 37° C. for 1 h After the plate was washed 3 times with the washing buffer, 100 µL of biotin-labeled hIL33 Avitag (with a concentration of 0.1 µg/mL) was added to each well, and the plate was incubated at 37° C. for 1 h. After the plate was washed 3 times with the washing buffer, a 1:1000 diluted secondary antibody Avidin HRP (Jackson immunoresearch, 016-030-084) was added at 100 µL/well, and the plate was incubated at room temperature for 1 h After the plate was washed with the washing buffer, the substrate TMB solution (Thermo, 00-4201-56) was added at 100 µL/well, and the plate was incubated at room temperature for 3 min. 50 µL of a stop solution (2 N H₂SO₄) was added to terminate the reactions. Colorimetric signals were generated and read at 450 nm using a plate reader (PE, Envision). The data were analyzed using GraphPad Prism5, and the IC₅₀ values were calculated.

| IC50 | Binder |
| --- | --- |
| 3.35 nM | B1 |
| 2.5 nM | B2 |
| 2.52 nM | B3 |
| 2.53 nM | B4 |
| 2.79 nM | B5 |
| 2.88 nM | B6 |
| 2.9 nM | B7 |

Target: T1, recombinant protein containing hST2 …
Test: ELISA, plate coated with hST2-ECD-mFc
Procedure: ST2 binding screening and analysis of antibodies were performed by ELISA using hST2-ECD-mFc (for assays of chimeric and humanized antibodies), hST2-ECD-hFc protein (for assays of hybridoma antibodies) and Cyno-ST2-his (Sino biological, 90915-C08H) as antigens. A high-adsorption 96-well plate (Costar, 9018) was coated with 2 µg/mL hST2-ECD-mFc or Cyno-ST2-his antigen at 100 µL/well and incubated overnight at 4° C. After the antigen not adsorbed was well washed off, the non-specific binding sites were blocked with a blocking buffer (PBS containing 2% bovine serum albumin). After the plate was washed three times with a washing buffer (PBS containing 0.05% (v/v) Tween 20), the anti-ST2 antibodies (serially diluted 3-fold from an initial concentration of 10 nM to 8 concentrations: 3.333 nM, 1.111 nM, 0.370 nM, 0.123 nM, 0.041 nM, 0.014 nM, 0.005 nM, and 0.002 nM) were added at 100 µL/well, and the plate was incubated at room temperature for 1 h. After the plate was washed with the washing buffer, a horseradish peroxidase (HRP)-conjugated secondary antibody was added, and the plate was incubated for another 60 min. After the plate was washed with the washing buffer, the substrate TMB solution (Thermo, 00-4201-56) was added at 100 µL/well, and the plate was incubated at room temperature for 2 min. A stop solution (2 N H₂SO₄) was added at 100 µL/well to terminate the reactions. Colorimetric signals were generated and read at 450 nm using a microplate reader (PE, Envision). The data were analyzed using GraphPad Prism5, and the EC₅₀ values were calculated.

| EC50 | Binder |
| --- | --- |
| 0.235 nM | B1 |
| 0.184 nM | B2 |
| 0.157 nM | B3 |
| 0.175 nM | B4 |
| 0.172 nM | B5 |
| 0.113 nM | B6 |
| 0.191 nM | B7 |
